According to paper PMC11601597 (bioRxiv, 2024):

Key:
[1] = target: K. pneumoniae OqxB (K. pneumoniae); assay: crystal structure
[2] = target: K. pneumoniae OqxB (K. pneumoniae); assay: cryo-EM structure
[3] = target: the molecule itself; assay: cryo-EM structure
[4] = target: the molecule itself; assay: crystal structure

K. pneumoniae OqxB (natural protein)
stoichiometry N [1]: 3 | stoichiometry N [2]: 3

B1: E. coli AcrB V612F (natural protein)
chain: MPNFFIDRPIFAWVIAIIIMLAGGLAILKLPVAQYPTIAPPAVTISASYPGADAKTVQDTVTQVIEQNMNGIDNLMYMSSNSDSTGTVQITLTFESGTDADIAQVQVQNKLQLAMPLLPQEVQQQGVSVEKSSSSFLMVVGVINTDGTMTQEDISDYVAANMKDAISRTSGVGDVQLFGSQYAMRIWMNPNELNKFQLTPVDVITAIKAQNAQVAAGQLGGTPPVKGQQLNASIIAQTRLTSTEEFGKILLKVNQDGSRVLLRDVAKIELGGENYDIIAEFNGQPASGLGIKLATGANALDTAAAIRAELAKMEPFFPSGLKIVYPYDTTPFVKISIHEVVKTLVEAIILVFLVMYLFLQNFRATLIPTIAVPVVLLGTFAVLAAFGFSINTLTMFGMVLAIGLLVDDAIVVVENVERVMAEEGLPPKEATRKSMGQIQGALVGIAMVLSAVFVPMAFFGGSTGAIYRQFSITIVSAMALSVLVALILTPALCATMLKPIAKGDHGEGKKGFFGWFNRMFEKSTHHYTDSVGGILRSTGRYLVLYLIIVVGMAYLFVRLPSSFLPDEDQGVFMTMVQLPAGATQERTQKVLNEVTHYYLTKEKNNVESVFAFNGFGFAGRGQNTGIAFVSLKDWADRPGEENKVEAITMRATRAFSQIKDAMVFAFNLPAIVELGTATGFDFELIDQAGLGHEKLTQARNQLLAEAAKHPDMLTSVRPNGLEDTPQFKIDIDQEKAQALGVSINDINTTLGAAWGGSYVNDFIDRGRVKKVYVMSEAKYRMLPDDIGDWYVRAADGQMVPFSAFSSSRWEYGSPRLERYNGLPSMEILGQAAPGKSTGEAMELMEQLASKLPTGVGYDWTGMSYQERLSGNQAPSLYAISLIVVFLCLAALYESWSIPFSVMLVVPLGVIGALLAATFRGLTNDVYFQVGLLTTIGLSAKNAILIVEFAKDLMDKEGKGLIEATLDAVRMRLRPILMTSLAFILGVMPLVISTGAGSGAQNAVGTGVMGGMVTATVLAIFFVPVFFVVVRRRFSRKNEDIEHSHTVDHH
stoichiometry N [3]: 3

B2: E. coli AcrB V612W (natural protein)
chain: MPNFFIDRPIFAWVIAIIIMLAGGLAILKLPVAQYPTIAPPAVTISASYPGADAKTVQDTVTQVIEQNMNGIDNLMYMSSNSDSTGTVQITLTFESGTDADIAQVQVQNKLQLAMPLLPQEVQQQGVSVEKSSSSFLMVVGVINTDGTMTQEDISDYVAANMKDAISRTSGVGDVQLFGSQYAMRIWMNPNELNKFQLTPVDVITAIKAQNAQVAAGQLGGTPPVKGQQLNASIIAQTRLTSTEEFGKILLKVNQDGSRVLLRDVAKIELGGENYDIIAEFNGQPASGLGIKLATGANALDTAAAIRAELAKMEPFFPSGLKIVYPYDTTPFVKISIHEVVKTLVEAIILVFLVMYLFLQNFRATLIPTIAVPVVLLGTFAVLAAFGFSINTLTMFGMVLAIGLLVDDAIVVVENVERVMAEEGLPPKEATRKSMGQIQGALVGIAMVLSAVFVPMAFFGGSTGAIYRQFSITIVSAMALSVLVALILTPALCATMLKPIAKGDHGEGKKGFFGWFNRMFEKSTHHYTDSVGGILRSTGRYLVLYLIIVVGMAYLFVRLPSSFLPDEDQGVFMTMVQLPAGATQERTQKVLNEVTHYYLTKEKNNVESVFAWNGFGFAGRGQNTGIAFVSLKDWADRPGEENKVEAITMRATRAFSQIKDAMVFAFNLPAIVELGTATGFDFELIDQAGLGHEKLTQARNQLLAEAAKHPDMLTSVRPNGLEDTPQFKIDIDQEKAQALGVSINDINTTLGAAWGGSYVNDFIDRGRVKKVYVMSEAKYRMLPDDIGDWYVRAADGQMVPFSAFSSSRWEYGSPRLERYNGLPSMEILGQAAPGKSTGEAMELMEQLASKLPTGVGYDWTGMSYQERLSGNQAPSLYAISLIVVFLCLAALYESWSIPFSVMLVVPLGVIGALLAATFRGLTNDVYFQVGLLTTIGLSAKNAILIVEFAKDLMDKEGKGLIEATLDAVRMRLRPILMTSLAFILGVMPLVISTGAGSGAQNAVGTGVMGGMVTATVLAIFFVPVFFVVVRRRFSRKNEDIEHSHTVDHH
stoichiometry N [3]: 3

B3: E. coli AcrB V612N (natural protein)
chain: MPNFFIDRPIFAWVIAIIIMLAGGLAILKLPVAQYPTIAPPAVTISASYPGADAKTVQDTVTQVIEQNMNGIDNLMYMSSNSDSTGTVQITLTFESGTDADIAQVQVQNKLQLAMPLLPQEVQQQGVSVEKSSSSFLMVVGVINTDGTMTQEDISDYVAANMKDAISRTSGVGDVQLFGSQYAMRIWMNPNELNKFQLTPVDVITAIKAQNAQVAAGQLGGTPPVKGQQLNASIIAQTRLTSTEEFGKILLKVNQDGSRVLLRDVAKIELGGENYDIIAEFNGQPASGLGIKLATGANALDTAAAIRAELAKMEPFFPSGLKIVYPYDTTPFVKISIHEVVKTLVEAIILVFLVMYLFLQNFRATLIPTIAVPVVLLGTFAVLAAFGFSINTLTMFGMVLAIGLLVDDAIVVVENVERVMAEEGLPPKEATRKSMGQIQGALVGIAMVLSAVFVPMAFFGGSTGAIYRQFSITIVSAMALSVLVALILTPALCATMLKPIAKGDHGEGKKGFFGWFNRMFEKSTHHYTDSVGGILRSTGRYLVLYLIIVVGMAYLFVRLPSSFLPDEDQGVFMTMVQLPAGATQERTQKVLNEVTHYYLTKEKNNVESVFANNGFGFAGRGQNTGIAFVSLKDWADRPGEENKVEAITMRATRAFSQIKDAMVFAFNLPAIVELGTATGFDFELIDQAGLGHEKLTQARNQLLAEAAKHPDMLTSVRPNGLEDTPQFKIDIDQEKAQALGVSINDINTTLGAAWGGSYVNDFIDRGRVKKVYVMSEAKYRMLPDDIGDWYVRAADGQMVPFSAFSSSRWEYGSPRLERYNGLPSMEILGQAAPGKSTGEAMELMEQLASKLPTGVGYDWTGMSYQERLSGNQAPSLYAISLIVVFLCLAALYESWSIPFSVMLVVPLGVIGALLAATFRGLTNDVYFQVGLLTTIGLSAKNAILIVEFAKDLMDKEGKGLIEATLDAVRMRLRPILMTSLAFILGVMPLVISTGAGSGAQNAVGTGVMGGMVTATVLAIFFVPVFFVVVRRRFSRKNEDIEHSHTVDHH
stoichiometry N [4]: 3
